In assay [1] the target is mixture of ‘TAXI’-like endoxylanase inhibitors obtained after the affinity purification step of example 3, immobilised on NHS-activated Sepharose 4 Fast Flow. Briefly: affinity chromatography on immobilised ‘TAXI’-like endoxylanase inhibitors, activity by Xylazyme-AX method.
For assay [2], the target named is endoxylanase from Bacillus subtilis (family 11), NV Puratos (Bacillus subtilis) (UniProt P18429). Briefly: cell-based or functional assay.
For assay [3], the target named is endoxylanase M4 from Aspergillus niger (family 11), Megazyme (Aspergillus niger). Briefly: cell-based or functional assay.
Assay [4] concerns the target endoxylanase M6 from a rumen microorganism culture filtrate, Megazyme. Briefly: cell-based or functional assay.
Assay [5] concerns the target endoxylanase M1 from Trichoderma viride (family 11), Megazyme (Trichoderma viride). Briefly: cell-based or functional assay.

We go through five substances from patent publication US20030195151A1.

Chain of endoxylanase M4 from Aspergillus niger (family 11), Megazyme (Aspergillus niger) (P55329 28-211): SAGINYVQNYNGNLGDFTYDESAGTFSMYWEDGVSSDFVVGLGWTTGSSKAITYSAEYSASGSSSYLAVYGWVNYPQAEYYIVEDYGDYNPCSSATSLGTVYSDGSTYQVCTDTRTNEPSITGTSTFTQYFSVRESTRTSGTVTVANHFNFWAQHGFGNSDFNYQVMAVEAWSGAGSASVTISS
Chain of endoxylanase of A. niger, var. awamori (Quest International enzyme preparation) (P55328 28-211): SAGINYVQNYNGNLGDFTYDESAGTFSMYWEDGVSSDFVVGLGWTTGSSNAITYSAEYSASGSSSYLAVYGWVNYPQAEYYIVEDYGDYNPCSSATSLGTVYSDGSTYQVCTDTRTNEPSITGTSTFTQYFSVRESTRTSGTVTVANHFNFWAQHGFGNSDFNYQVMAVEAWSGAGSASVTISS

Turning to “endoxylanase of A. niger, var. awamori (Quest International enzyme preparation)”, in assay [1], the endoxylanase activity retained on the affinity column was determined as 94%.

As for “MBP (maltose binding protein)-TAXI fusion protein expressed by the pMAL-p2X-TAXI plasmid”, the figures for the endoxylanase inhibition activity of periplasmic protein fraction (Xylazyme-AX method) in assay [2] and in assay [3] were 88% and 99%, respectively.

“recombinant TAXI protein expressed by the pHOS31-TAXI plasmid”: the endoxylanase inhibition activity of periplasmic protein fraction (Xylazyme-AX method) in assay [2] is 81%; in assay [3] it was 96%.

For the substance “TAXI II (Triticum aestivum L. endoxylanase inhibitor II)”, the maximum of inhibition as a function of inhibitor quantity in assay [2] stood at 80%. Besides, the maximum of inhibition of endoxylanase activity (Xylazyme-AX method) in assay [2] is 77%; in assay [4], 8%; in assay [5] it was more than 90%. Further, the results for the quantity of inhibitor that reduces the endoxylanase activity with 50% (Xylazyme-AX method) in assay [2] and in assay [5] were 0.28 µg and 0.07 µg, respectively.

With “HvXI (Hordeum vulgare L. endoxylanase inhibitor)”, the level of inhibitor that reduces the endoxylanase activity with 50% (Xylazyme-AX method) in assay [2] was found to be 0.27 µg; in assay [3], 0.13 µg; in assay [5], 0.08 µg. The maximum of inhibition of endoxylanase activity (Xylazyme-AX method) is 92% in assay [2], 15% in assay [4], more than 95% in assay [3] and more than 95% in assay [5].
